From patent publication US20210017269A1 (GlaxoSmithKline, published 2021)

How the values were obtained:
[1] = biological target: T1, human complement component C1q (human, UniProt P02745 23-245; P02746 28-253; P02747 29-245); experiment: ProteOn XPR36 SPR, antibody immobilised, C1q as analyte, equilibrium model
T1 construct: C1q from Sigma (C1740); also called human recombinant soluble complement C1q
Description: Binding of 28Y042-7F11-1 to human recombinant soluble complement C1q was assessed using the PROTEOn XPR36 (BioRad™) biosensor instrument. A control antibody containing the YTE change to its Fc region was included as a control.
The antibodies to be tested were immobilised on a GLC chip (Bio-Rad, 176-5011) by primary amine coupling (GE Healthcare, BR-1000-50). Recombinant C1q (Sigma, C1740) was passed over the immobilised antibodies at 512 nM, 128 nM, 32 nM, 8 nM, 2 nM and 0 nM (i.e., buffer alone) and a blank activated and deactivated flow cell was used to double reference binding curves. The running buffer for binding analysis was HBS-EP (pH7.4, Teknova, H8022) with 10 mM CaCl₂. Data were fitted to the equilibrium model, inherent to the PROTEON XPR36 (BioRad™) analysis software using a global R-max value.

[2] = biological target: T2, human neonatal Fc receptor (FcRn) (human, UniProt P55899 24-297; P61769 21-119, limits assumed); experiment: ProteOn SPR, human FcRn, pH 7.4
T2 construct: Recombinant human FcRn; also called human FcRn; recombinant human neonatal receptor

[3] = biological target: T2, human neonatal Fc receptor (FcRn); experiment: ProteOn SPR, human FcRn, pH 6.0
[4] = biological target: T2, human neonatal Fc receptor (FcRn); experiment: SPR Biacore T200, 37 °C, pH 6.0
Description: (§1) Table 17 legend/description: Comparison of binding affinity of 28Y042-7F11-1 and mepolizumab for human FcRn at pH 6.0 and pH 7.4.
(§2) The binding affinity of 28Y042-7F11-1 and mepolizumab to human FcRn at pH 6.0 and pH 7.4 was assessed using a BIACORE T200 instrument at 37° C. Human recombinant IL-5 was diluted in acetate buffer pH 5.0 and immobilised to a level of 535 RU by amine coupling on to a CMS chip (GE, BR100530). 28Y042-7F11-1 or mepolizumab were captured by flowing (5 μl/min) a 100 nM solution of either mAb in HBS-EP (Teknova, H8022) buffer for 24 seconds over the chip surface. Following capture of the antibody via the immobilised IL-5, cycles of varying concentrations (0.5 μM to 32 μM) of human FcRn were flowed over the chip surface at 5 μ1/min for 120 seconds contact time followed by 80 seconds dissociation for each cycle. At the completion of each cycle, the chip surface was regenerated using 10 mM Glycine pH 1.5 for 5 seconds at 50 μ1/min followed by 10mM NaOH for 5 seconds at 50 μl/min. FcRn cycles were performed for each concentration at pH 6.0 (HBS-EP+, Teknova, Cat: H8022, pH 6.0) and pH 7.4 (HBS-EP). A molecular weight of 42929 Da for human FcRn was used in the calculations.

[5] = biological target: T2, human neonatal Fc receptor (FcRn); experiment: ProteOn SPR, human FcRn, pH 6.0; remark: listed apart in the source
cynomolgus IL-5 = biological target: T3, cynomolgus IL-5 (cynomolgus); experiment: SPR Biacore T200, 37 °C
T3 construct: also called cyno IL-5

human IL-5 (recombinant) [6] = biological target: T4, human IL-5 (recombinant) (human, UniProt P05113 20-134); experiment: SPR Biacore T200, 37 °C
T4 construct: exact recombinant constructs are not described; also called recombinant human IL-5; human IL-5 cytokine

[7] = biological target: T2, human neonatal Fc receptor (FcRn); experiment: SPR Biacore T200, 37 °C, pH 6.0, antibody captured on immobilised IL-5, FcRn as analyte
Description: as §1, §2

human IL-5 (recombinant) [8] = biological target: T4, human IL-5 (recombinant); experiment: cell-based or functional assay
human IL-5 (recombinant) [9] = biological target: T4, human IL-5 (recombinant); experiment: KinExA solution phase affinity, 25 °C
Description: Kinetic analyses were performed to compare 28Y042-7F11-1, mepolizumab, and GSK3559090A (a comparator IgG1 anti-IL-5 mAb molecule based). Due to the high affinity of 28Y042-7F11-1, it was not possible to accurately determine the dissociation rate by Biacore 4000 at 25° C.; therefore KINEXA analysis was used to calculate an accurate affinity for 28Y042-7F11-1 binding to human IL-5 at 25° C.
Solution phase affinity measurements were made using Sapidyne's KINEXA 3200 instrument. The method relied on the detection of free antibody at equilibrium in a titrated series of antigen concentrations. For detection, a bead matrix was created using NHS-activated SEPHEROSE beads (GE Healthcare, 17-0906-01) coated with human IL-5. For affinity determination, a fixed concentration of antibody was incubated with a dilution series of human IL-5 concentrations and binding was allowed to reach equilibrium before the samples were run on the KINEXA 3200 instrument. Each solution was passed over an aliquot of the antigen beads where free antibody bound to the antigen coated beads and was detected using an anti-human IgG antibody (DYLIGHT 649-AFFINIPURE F(ab′)2 fragment goat anti-human IgG; Jackoson Immunoresearch, 109-496-170), with fresh antigen beads used to measure each sample.

[10] = biological target: T2, human neonatal Fc receptor (FcRn); experiment: SPR Biacore T200, 37 °C, pH 7.4, antibody captured on immobilised IL-5, FcRn as analyte
Description: as §1, §2

human IL-5 (recombinant) [11] = biological target: T4, human IL-5 (recombinant); experiment: SPR Biacore 4000, 25 °C, antibody captured on protein A, human IL-5 as analyte

T1 sequence (P02745 23-245 limits assumed, chain 1 of 3): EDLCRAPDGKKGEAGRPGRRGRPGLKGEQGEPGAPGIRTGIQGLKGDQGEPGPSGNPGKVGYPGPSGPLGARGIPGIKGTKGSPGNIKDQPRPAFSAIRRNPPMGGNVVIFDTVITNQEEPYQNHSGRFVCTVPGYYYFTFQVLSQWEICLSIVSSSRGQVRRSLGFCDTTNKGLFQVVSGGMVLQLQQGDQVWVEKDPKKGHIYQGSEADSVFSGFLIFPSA
T1 sequence (P02746 28-253 limits assumed, chain 2 of 3): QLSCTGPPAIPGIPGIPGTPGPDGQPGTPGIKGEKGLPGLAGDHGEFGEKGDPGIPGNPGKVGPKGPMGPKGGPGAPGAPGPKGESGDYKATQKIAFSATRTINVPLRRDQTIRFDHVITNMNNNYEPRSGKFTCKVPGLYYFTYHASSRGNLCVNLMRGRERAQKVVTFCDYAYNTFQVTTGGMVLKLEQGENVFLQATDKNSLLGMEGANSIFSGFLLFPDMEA
T1 sequence (P02747 29-245 limits assumed, chain 3 of 3): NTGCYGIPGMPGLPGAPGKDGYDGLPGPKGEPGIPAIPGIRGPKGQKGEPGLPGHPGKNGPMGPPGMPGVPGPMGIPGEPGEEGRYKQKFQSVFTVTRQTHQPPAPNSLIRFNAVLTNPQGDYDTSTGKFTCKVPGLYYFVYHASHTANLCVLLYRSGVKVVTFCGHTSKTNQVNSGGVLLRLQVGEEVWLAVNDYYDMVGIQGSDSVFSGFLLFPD

Row | Kd [1] | Kd [2] | fold increase in affinity compared to the human IgG1 wild type control [3] | fold increase in affinity compared to mepolizumab [4] | Kd [5] | Kd (cynomolgus IL-5) | Kd (human IL-5 (recombinant) [6]) | Kd [7] | IC50 in the TF-1 cell assay after thermal stress (1 week at 40 °C in acetate or phosphate buffer) (human IL-5 (recombinant) [8]) | IC50 of inhibition of human IL-5 induced TF-1 cell proliferation (human IL-5 (recombinant) [8]) | fold improvement in TF-1 cell assay potency compared to mepolizumab (human IL-5 (recombinant) [8]) | Kd (human IL-5 (recombinant) [9]) | Kd [10] | Kd (human IL-5 (recombinant) [11]) | Binder
1 | 750 nM | 2650 nM | ~3 fold | ~13 fold | 130 nM | 0.0239 nM | 0.0391 nM | 157 nM | 0.004 to 0.005 nM | 0.004 nM | ~30 fold | 0.0105 nM | 16200 nM |  | 28Y042-7F11-1 (antibody, human IgG1, kappa, Recombinant humanized monoclonal antibody, IgG1 kappa, two heavy and two light chains; also called GSK3511294) heavy: QVTLRESGPALVKPTQTLTLTCTVSGFSLTGSSVHWVRQPPGKGLEWLGVIWASGGTDYNSALMSRLSISKDTSRNQVVLTMTNMDPVDTATYYCARDPPSGLLRLDYWGRGTLVTVSSASTKGPSVFPLAPSSKSTSGGTAALGCLVKDYFPEPVTVSWNSGALTSGVHTFPAVLQSSGLYSLSSVVTVPSSSLGTQTYICNVNHKPSNTKVDKRVEPKSCDKTHTCPPCPAPELLGGPSVFLFPPKPKDTLYITREPEVTCVVVDVSHEDPEVKFNWYVDGVEVHNAKTKPREEQYNSTYRVVSVLTVLHQDWLNGKEYKCKVSNKALPAPIEKTISKAKGQPREPQVYTLPPSREEMTKNQVSLTCLVKGFYPSDIAVEWESNGQPENNYKTTPPVLDSDGSFFLYSKLTVDKSRWQQGNVFSCSVMHEALHNHYTQKSLSLSPGK light: not shown
2 |  |  |  |  |  |  |  | 2080 nM |  | 0.105 nM |  |  |  | 0.123 nM | mepolizumab (antibody) chain 1: not shown chain 2: not shown
